Experiment: soluble on expression in E. coli; label from the status in PepcDB or PDB records

For “MDEIEKNNGEIIIYRTEDGRTQLEVRLENENVWLSQQQMSELFQTSRTNIVEHIKHIFEEGELEENSTCQIFRQVRIEGTRKVERSIPFYNLDMIISLGYRVKSRVATHFRRWATERLKEYLIKGFAMDDQRLKEIGGGGYWYELLNRIRDIRSSEKVLYRQVLDLYATSVDYDPKADESIRFFKIVQNKLHYAAHGHTAAEVIFERADAEKPFMGLATFPGEQPRKEDVLIAKNYLNEKELKILNNLVSGYFDFAEIQAIKRSPMYMSDYIHHLDLILSTTGEQVLQNAGTISHEQAKQKALGEYRKYHVKTLSPVEEAYFDSIKKLTAETKKKKKK”, which “soluble on expression in E. coli” value is on record?
The value was “not soluble”.

Which “soluble on expression in E. coli” value does the source give for “MKTVGVVLSGCGVLDGAEIHESVLTMLALDRAGAEVLFFAPDKPQLHVINHITGEIVAEERNVLVESARIARGLITPLSAADPEVLDALIVPGGFGAAKNLCDFAIKGGECSVEPDLYKLIQLMHKSGKPIGLMCISPVMLPKLLGKPIRLTIGNDPDTIDAIEIMGGEHVICPADDVVIDLENKVVTTPAYMLAGSISEAAKGIDKLVTKVLDLTE” here?
Its value is “not soluble”.

With “MKKDLISVVMSAYNSEKFISDSISSILDQTYENWELIIINDASSDNTLKIVNQFSEKDPRIKVIDNENNLGLTISLNIGINNSKGEFIARLDSDDFAEPSRLEKELDHLHAYPEAGLVGSGAHLINSSGNKIGSMNVMSQPYFVNRFLINLNPFIHSSIMVRKKALDNVGSYREKFRYSQDYDLILRLSDKYKLSNIALPLIRWRVSDSSVTMQHHTLQRIYADIAREFAIERRNSGHDSYESTEFDTLIHEMRIRNQGRYLCDHGVYDLLFNKKYKEGCSELIKGISKGGFPYNSFYRGITQVISKVNIQLEHHHHHH” as the sequence, how does the “soluble on expression in E. coli” value read?
The value was “not soluble”.

For “KGEITYLNQAWASITGFSISECMGTMYNDYFIKEKHVADHINTQIQNKASSGMFTAKYVTKNGTIFWGEVHYKLYYDRDDQFTGSLGTMSD”, which “soluble on expression in E. coli” value is on record?
Its value is “not soluble”.

Which “soluble on expression in E. coli” value does the source give for “MSLEARVLTGAALEARLDEVARLRIAVFRDWPYLYEGSMDYERSYLSTYRTSPGAILVGAFDGDRLVGASTGTPMEDHAEDFAAAFARTGLPLDEIFYCAESVLLPDYRGHGMGHRFFDLREAHARALGRRHSAFCSVIRPEDHPLRPAAARSNEPFWRKRGYAPLPGVVAHYGWTDVGEERETQKPLQFWIRDL” here?
Its value is “not soluble”.

For “MGSDKIHHHHHHVEQAQLDEYLDRFQLTDVFAGGLREHLQPVAFQAGDWLCRQGDAADRMYLLLEGKLKITHMSATGKRLVLSFKHPFDLVGDIEYVRRTPLMNTVEAVTPVKAVSISYAALEQKGADNPALLRFLLETITMKFELKSHSMSFNLLYPVEVRLASYLLSMTPETPTLPVSDLVDAADLIGTSYRHLNRVLRQFSQDNLIERTNRTITIIDREGLTERVGESIYE”, which “soluble on expression in E. coli” value is on record?
Its value is “not soluble”.

Which “soluble on expression in E. coli” value does the source give for “MGRCYNNIVIDASIEAVWQQIGNFHDMSWAKGVITSLVKVGPASGTEVGAKRILNDAIHETLVSLDSSNYTFTYSIDDGPDAIAKSAVDNYLGMVNLSESSTGVLVEWSSSFTSDNEKAVTEFCDPIYMALLGALKNSLRLEHHHHHH” here?
The value was “soluble”.

With “MAKINLTPKKIYEQEFKTSIRGYDKTEVDEFLDDVIKDYTVYIALVKELQEENAKLKAKATSAPASRPAYASATSEPSHATTNIASASNYDILKRISRLEKEVFGKQIVE” as the sequence, how does the “soluble on expression in E. coli” value read?
The value was “not soluble”.

With “MSLKWFNTLSHNRWLEQETDRIFNFGKNAVVPTGFGWLGNKGQIKEEMGTHLWITARMLHVYSVAASMGRPGAYDLVDHGIKAMNGALRDKKYGGWYACVNDQGVVDASKQGYQHFFALLGAASAVTTGHPEARKLLDYTIEVIEKYFWSEEEQMCLESWDEAFSQTEDYRGGNANMHAVEAFLIVYDVTHDKKWLDRALRIASVIIHDVARNGDYRVNEHFDSQWNPIRDYNKDNPAHRFRAYGGTPGHWIEWGRLMLHLHAALEARFETPPAWLLEDAKGLFHATIRDAWAPDGADGFVYSVDWDGKPIVRERVRWPIVEAMGTAYALYTLTDDSQYEEWYQKWWDYCIKYLMDYENGSWWQELDADNKVTTKVWDGKQDIYHLLHCLVIPRLPLAPGLAPAVAAGLLDINAKEGGSHHHHHH” as the sequence, how does the “soluble on expression in E. coli” value read?
The value was “soluble”.

Which “soluble on expression in E. coli” value does the source give for “MALATRNLKVIHIKRIENSRSSLIRANHGSKGIIHLILDQAPYHRADKVKEKAKKLVIHLNYLPPYSPNLNPIERLWKVMNEKVRNNRFFNSAKDFRREIERFFTEILPDIGASLGQSINDNFQLEHHHHHH” here?
Its value is “not soluble”.

With “MKELMRNVYLLDDTLVTKSKYGSHYGEKVFDGYREWVPWRSKLAAMILKGHRLKLRGDERVLYLGAASGTTVSHLADIVDEGIIYAVEYSAKPFEKLLELVRERNNIIPLLFDASKPWKYSGIVEKVDLIYQDIAQKNQIEILKANAEFFLKEKGEVVIMVKARSIDSTAEPEEVFKSVLKEMEGDFKIVKHGSLMPYHRDHIFIHAYRF” as the sequence, how does the “soluble on expression in E. coli” value read?
The value was “soluble”.

With “MGSDKIHHHHHHMNNLYPYGAPDSNLYARKQEEYDQQIAEAILAGIKREATAIELYRRLADEAPSEQHQHDIRQALENKQASLTQFTNAYRILTGQQPQLEVDDVSFYRFHEGLQKAYEIEVEGYEEYERSSALTENPHVQHAFWTALNTEYENTTRLYRSLHEEADHRVTDHGPRPFVVNIEDETKRNRAFRRALWTGDHLQVTLMSIQVGEDIGLEIHPHLDQFLRVEEGRGLVQMGHRQDNLHFQEEVFDDYAILIPAGTWHNVRNTGNRPLKLYSIYAPPQHPHGTVHETKAIAMAAEEHHHL” as the sequence, how does the “soluble on expression in E. coli” value read?
Its value is “not soluble”.

Which “soluble on expression in E. coli” value does the source give for “MSLGEAEARVVLNMNTGWAFHRGEVESGGQPGLDDSGWIAAIIPHIMQLEKKHCGGDIIYDGVGWYRRTFRVPSQYKDKQIKISFEGVMNACEVYLNGQKISAHRGGYVGFVTDITTRINWDRDNLLAVRVSAEYDPLTPPGKPQAGMDFYYYSGIYRDVEMVISDPLHITHALEEEEVAGGGIFVTYPVVGKEKAVTHVKAHVRNEGKRKRKAQLRTQLIDKSGKIVACQLTPFRLSAGEAIHLEQNLEIVHPSLWHPYDPNLYTLQNEIVENGKVVDCHTESIGIRTIAYTRDGGFYINGESLYLRGANRHQAFAHIGDAAANSMQERDVIDLKRGGCNAVRAAHYPQDPAFLAACDKYGLLVVECIPGWQYFKNDSTFISRLYEVGKQMIRRDRNHPSVILWETALNESRYPAEIARNLYAIAHIEYPGDQMYTAGDYFGHADRVDCFDVFYKQVSRFPKDGDVMSNYPEDQIAVKPLFCREWGDGVGEKPRVSLMENEEEQLKQCRGRFLQLNGHGYFDWCMLDANPRMGGHFLWSYNDYARGAEQETMFCGIVDINRYPKFSYYMMQSMRDKEISQEGHHHHHH” here?
Its value is “soluble”.

With “GKRKLATISTKGKVKDLTDTLVGSSIGRPYISGGFTASSEGYMAFTQGSSSRPADVAVINTRKKLVKLTQLNEDLLAHKNLGKVTEINYKSSFDDEPIQGWYVTPPNFDPKKKYPLILEIHGGPHLAYGPHFSAELQRFAAQGYVVFYDNHRGSSSYGERFAMLLKYKYSSKEDFADHNSGVDAMLGLGFIDEGNLFIAGGSAGGIATAYAIGLTDRFSAAVVVKPVINWLSKVLTADSGLGQIPTQFPGMPWEHVEHYWKRSPMSLVGNVTTPTMLMTGEEDLRTPMAQTEQFYQALKLRKIDTVLVKVPGSPHGIAGKPSRMITKIEHTLAWFEKYKT” as the sequence, how does the “soluble on expression in E. coli” value read?
Its value is “not soluble”.

For “MSNYWLNIYKPRGISSAQLVSIVKKILGKTKIGHAGTLDVEAEGILPFAVGEATKLIHLLVDARKTYIFTVKFGMQTNSGDCAGKVIATKDCIPSQEEAYAVCSKFIGNVTQIPPAFSALKVNGVRAYKLAREGKKVELKPRNITIYDLKCLNFDEKNATATYYTECSKGTYIRTLAEDLALSLQSLGFVIELRRTQVGIFKEENAIRIKSPDEITKNALEENSIKIEAILDDILVLDATDSQAQQIKYGQKCLFNYEKDFRHLAKFAYREEFKGNTERNTTAYTLVREDASTGLTYKLPLEVEFGKMSVDLLWVRYKGTLLAIGSLNKSCFNSLRVFNLTQDFF”, which “soluble on expression in E. coli” value is on record?
The value was “not soluble”.

For “METKKQSESETYVERMVLPEDMDIYEYLYGGRLMEWIDNCASIVATKHCRKRTVTGSIDSLFFLLPIHLGDMVILHGYINYTTKSTMEIEIDVIKEEGLTGIRRYATKAYLTYVAIDSDGRPTEIPQIVPETDEEKRRYQDAEKRAEERRKRLESIKQQLASMVP”, which “soluble on expression in E. coli” value is on record?
Its value is “not soluble”.

Which “soluble on expression in E. coli” value does the source give for “MRMKALLIDYGSGNLRSAAKALEAAGFSVAVAQDPKAHEEADLLVLPGQGHFGQVMRAFQESGFVERVRRHLERGLPFLGICVGMQVLYEGSEEAPGVRGLGLVPGEVRRFRAGRVPQMGWNALEFGGAFAPLTGRHFYFANSYYGPLTPYSLGKGEYEGTPFTALLAKENLLAPQFHPEKSGKAGLAFLALARRYFEVL” here?
The value was “soluble”.

For “MGHHHHHHSHAEDATERACGLTMDPECAQLLPALCAVLVDPRQPVADDTCLEKLLDWFKTVTEGESSVVLLQEHPCLVELLSHVLKVQDLSSGVLSFSLRLAGTFAAQENCFQYLQQGELLPGLFGEPGPLGRATWAVPTVRSGWIQGLRSLAQHPSALRFLADHGAVDTIFSLQGDSSLFVASAASQLLVHVLALSMRGGAEGQPCLPGGDWPACAQKIMDHVEESLCSAATPKVTQALNVLTTTFGRCQSPWTEALWVRLSPRVACLLERDPIPAAHSFVDLLLCVARSGPRDAAGGPGWATVFLG”, which “soluble on expression in E. coli” value is on record?
Its value is “not soluble”.

Which “soluble on expression in E. coli” value does the source give for “VSGREPSSRIIRVSVKTPQDCHEFFLAENSNVRRFKKQISKYLHCNADRLVLIFTGKILRDQDILSQRGILDGSTVHVVVRSH” here?
Its value is “soluble”.

Which “soluble on expression in E. coli” value does the source give for “MSTASVLDDIDYDSSFEMVEEEKFEKIENTDNSENFQYVSTKGNTVKEVNINSNEKKKKEAPIQILTAMIGKWKLASSENLQEYFTLEKFPEITQMAWEHGITCYKMNGNQLHVHTDLLGKSLIPTIFEFDKPIARDDNAVSTHAEGNMMSTICKRIADGSIVWKVERLIKNGNLVVFNSRGNFRCKRVYKRVN” here?
The value was “not soluble”.

With “MSMTVTTYLPIEAIKQQFCQSLDEQNTLILSAPPGAGKSTCLPLWLLTLPSLANKKIYLLQPRRLAVKNIATFLAAQLKEKVGETVGYRLRNDSKTSTSTRLEVITEGILTQIIQKDAELLGTALVVFDEFHERSLQGDLAFALTREVQTELRDDLKILLMSA” as the sequence, how does the “soluble on expression in E. coli” value read?
Its value is “not soluble”.

For “MGSDKIHHHHHHMARILIIRFSALGDVAMTIPVVHSLAVQYPQLEITVLSRAVWQPLFQGLPANVSFIGADLTGKHKGLWGLNTLYSELKAKHFDYVADFHHVLRTKYLCLRFRLANIPVASIYKGRVGKEKLVRRRHKVLENQKSSFRRYADVLEKLGFPVLLNFSSIYGDEKGNFAEIEPVTGAKDNLKWIGIAPFAKHMGKIYPIELQEQVVAHFAADPKVKVFLFGGGKSEQEVFDGWVAKYPTVVSMIGKLNMRTELNLMSHLDVMLSMDSANMHLASLVNIPVISVWGATHPYAGFMGWKQLPVNTVQFDLSCRPCSVYGQKPCWRGDYACLREIKPEQVIAKIEGIIN”, which “soluble on expression in E. coli” value is on record?
The value was “not soluble”.

Which “soluble on expression in E. coli” value does the source give for “MGSDKIHHHHHHMILTKEKSLNAGPIYGTGEGVAHSKRWYVALVRMHHEKKVSEYLNKVGIENFVPVQKEIHQWSDRRKLVESVLLPMMVFVHADPKERMEVLNFTTVSRYMVMRGESSPAVIPDDQMARFRFMLDYSDETVCMNSSPLARGEKVQVIKGPLQGLVGELVNVDGKSKIAVRLNMLGCACVDMPIGYVEPIGEKN” here?
The value was “not soluble”.
